The experiment addresses spike protein of SARS-CoV-2 clinical isolate HH01 (Wuhan-like), on live virus (SARS-CoV-2 (Wuhan-like HH01)) (UniProt P0DTC2). The experiment can be described thus: cell-based or functional assay.

With “recombinant minibinder LCB1 with N- and C-terminal Ser/Gly extensions and C-terminal Cys (designed binder)”, the IC50, inhibition of SARS-CoV-2 HH01 replication on Calu-3 cells lay within 10 to 100 nM. Still for that read-out and setting: the figure for “virus-binding conjugate S: PLGA-only particle incubated with LCB1 (control, adsorbed minibinder)” is 1 to 10 µg/mL.

Take “virus-binding conjugate P: PLGA-PEG-Mal / PLGA (1:1) particle loaded with LCB1”: the IC50, inhibition of SARS-CoV-2 HH01 replication on Calu-3 cells worked out at 4.86 µg/mL and the IC90, inhibition of SARS-CoV-2 HH01 replication on Calu-3 cells was 4.99 µg/mL.

Source of the values: patent EP4556028A1.
